Values quoted from earlier work in patent US20140031310A1, “PHARMACEUTICAL COMPOSITIONS AND METHODS FOR MAKING AND USING THEM” (priority 2011, published 2014).

Columns and labels:
[1] = in vivo
[2] = in vivo; remark: listed apart in the source

Compound | leads to HFSR / skin toxicity [1] | pharmacokinetic half-life [2] [h]
bevacizumab: anti-VEGF mAb | Neither anti-VEGF mAbs (bevacizumab) nor PDGF-R inhibitors (e.g., imatinib) lead to HFSR | 
CNC(=O)c1cc(Oc2ccc(NC(=O)Nc3ccc(Cl)c(C(F)(F)F)c3)cc2)ccn1 [sorafenib] |  | 20 to 24
